# Results as given in IntAct's records for PubMed 11042109.
# B1: Protein BEAN1 (Mus musculus), Q9EQG5 (parent)
# chain: MSFKRPCPLARYNRTSYFYPTTFSESSEHSHLLVSPVLVASAVIGVVITLSCITIIVGSIRRDRQARIQRHHHRHRRHHHHHRHRRRRHREYASGGHTHSRSSPRMPYACSPAEDWPPPLDVSSEGDVDVTVLWELYPDSPPGYEECMGPGATQLYVPTDAPPPYSMTDSCPRLNGALDSDSGQSRSHRQQEQRTQGQSRLHTVSMDTLPPYEAVCGTGSPSDLLPLPGPEPWPSNSQGSPIPTQAPMPSPERIV
# B2: WW domain-binding protein 1 (Mus musculus), P97764 (parent)
# chain: MARASSRNSSEEAWGSLQAPQQQQSPAASSLEGAIWRRAGTQTRALDTILYHPQQSHLLRELCPGVNTQPYLCETGHCCGETGCCTYYYELWWFWLLWTVLILFSCCCAFRHRRAKLRLQQQQRQREINLLAYHGACHGAGPVPTGSLLDLRLLSAFKPPAYEDVVHHPGTPPPPYTVGPGYPWTTSSECTRCSSESSCSAHLEGTNVEGVSSQQSALPHQEGEPRAGLSPVHIPPSCRYRRLTGDSGIELCPCPDSSEGEPLKEARASASQPDLEDHSPCALPPDSVSQVPPMGLASSCGDIP
# B3: WW domain-binding protein 2 (Mus musculus), P97765 (parent)
# chain: MALNKNHSEGGGVIVNNTESILMSYDHVELTFNDMKNVPEAFKGTKKGTVYLTPYRVIFLSKGKDAMQSFMMPFYLMKDCEIKQPVFGANFIKGIVKAEAGGGWEGSASYKLTFTAGGAIEFGQRMLQVASQASRGEVPNGAYGYPYMPSGAYVFPPPVANGMYPCPPGYPYPPPPPEFYPGPPMMDGAMGYVQPPPPPYPGPMEPPVSGPSAPATPAAEAKAAEAAASAYYNPGNPHNVYMPTSQPPPPPYYPPEDKKTQ
# B4: Protein TMEPAI (Mus musculus), Q9D7R2 (parent)
# chain: MSPARATAQRSLFPSMEITELEFVQIVVIVVVMMVMVVMITCLLSHYKLSARSFISRHSQARRRDDGLSSEGCLWPSESTVSGGMPEPQVYAPPRPTDRLAVPPFIQRSRFQPTYPYLQHEIALPPTISLSDGEEPPPYQGPCTLQLRDPEQQLELNRESVRAPPNRTIFDSDLIDSTMLGGPCPPSSNSGISATCYSSGGRMEGPPPTYSEVIGHYPGSSFQHQQSNGPSSLLEGTRLHHSHIAPLENKEKEKQKGHPL
# B5: RING finger protein 11 (Mus musculus), Q9QYK7 (parent)
# chain: MGNCLKSPTSDDISLLHESQSDRASFGEGTEPDQEPPPPYQEQVPVPIYHPTPSQTRLATQLTEEEQIRIAQRIGLIQHLPKGVYDPGRDGSEKKIRECVICMMDFVYGDPIRFLPCMHIYHLDCIDDWLMRSFTCPSCMEPVDAALLSSYETN
# B6: Lipopolysaccharide-induced tumor necrosis factor-alpha factor homolog (Mus musculus), Q9JLJ0 (parent)
# chain: MSAPGPYQAAAGPSVVPTAPPTYEETVGVNSYYPTPPAPMPGPATGLITGPDGKGMNPPSYYTQPVPVPNANAIAVQTVYVQQPVSFYDRPVQMCCPSCSKMIVTQLSYNAGALTWLSCGSLCLLGCVAGCCFIPFCVDALQDVDHYCPNCKALLGTYKRL
# B7: NEDD4 family-interacting protein 1 (Mus musculus), Q8R0W6 (parent)
# chain: MALALAALAAVEPACGSGYQQLQNEEEPGEPEQTAGDAPPPYSSITAESAAYFDYKDESGFPKPPSYNVATTLPSYDEAERTKTEATIPLVPGRDEDFVGRDDFDDTDQLRIGNDGIFMLTFFMAFLFNWIGFFLSFCLTTSAAGRYGAISGFGLSLIKWILIVRFSTYFPGYFDGQYWLWWVFLVLGFLLFLRGFINYAKVRKMPETFSNLPRTRVLFIY
# Variants of: B1
# Settings: with nedd4_mouse Nedd4, P46935
row,Variant,effect of a mutation on the interaction
1,Y144A;Y165A,disrupting interaction strength

# Variants of: B1
# Settings: with nedd4_mouse Nedd4, P46935
# Remark: another data set of the same source
# Target sequence in this assay (P46935 whole entry): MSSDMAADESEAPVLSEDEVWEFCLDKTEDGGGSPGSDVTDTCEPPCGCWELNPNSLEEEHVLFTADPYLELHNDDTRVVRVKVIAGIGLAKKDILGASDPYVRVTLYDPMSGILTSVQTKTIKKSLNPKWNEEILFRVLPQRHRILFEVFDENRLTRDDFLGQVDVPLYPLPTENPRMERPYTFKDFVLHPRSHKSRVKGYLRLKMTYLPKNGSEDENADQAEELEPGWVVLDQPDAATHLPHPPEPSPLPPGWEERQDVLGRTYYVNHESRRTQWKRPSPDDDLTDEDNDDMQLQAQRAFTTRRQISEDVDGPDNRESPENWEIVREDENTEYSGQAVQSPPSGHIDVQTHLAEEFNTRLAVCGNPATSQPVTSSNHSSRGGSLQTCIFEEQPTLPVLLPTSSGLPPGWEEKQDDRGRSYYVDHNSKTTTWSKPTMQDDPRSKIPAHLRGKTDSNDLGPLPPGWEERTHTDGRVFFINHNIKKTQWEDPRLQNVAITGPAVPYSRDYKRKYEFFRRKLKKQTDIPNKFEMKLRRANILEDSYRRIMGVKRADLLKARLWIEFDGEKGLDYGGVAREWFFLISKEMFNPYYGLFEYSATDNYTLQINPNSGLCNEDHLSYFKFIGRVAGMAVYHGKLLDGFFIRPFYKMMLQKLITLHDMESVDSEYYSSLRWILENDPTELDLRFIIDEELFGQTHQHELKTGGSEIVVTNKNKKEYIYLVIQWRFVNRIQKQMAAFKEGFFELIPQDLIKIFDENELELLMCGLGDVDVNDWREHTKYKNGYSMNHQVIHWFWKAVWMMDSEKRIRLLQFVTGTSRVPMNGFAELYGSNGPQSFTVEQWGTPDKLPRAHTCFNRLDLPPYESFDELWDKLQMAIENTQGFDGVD
row,Variant,effect of a mutation on the interaction
1,Y144A;Y165A,disrupting interaction strength
2,Y165A,disrupting interaction strength
3,Y144A,disrupting interaction strength

# Variants of: B2
# Settings: with nedd4_mouse Nedd4, P46935
# Target sequence in this assay (P46935 whole entry): as above
row,Variant,effect of a mutation on the interaction
1,Y162A,disrupting interaction strength

# Variants of: B2
# Settings: with nedd4_mouse Nedd4, P46935
# Remark: another data set of the same source
# Target sequence in this assay (P46935 whole entry): as above
row,Variant,effect of a mutation on the interaction
1,Y176A,disrupting interaction strength

# Variants of: B3
# Settings: with nedd4_mouse Nedd4, P46935
# Target sequence in this assay (P46935 whole entry): as above
row,Variant,effect of a mutation on the interaction
1,Y200A,decreasing interaction strength

# Variants of: B3
# Settings: with nedd4_mouse Nedd4, P46935
# Remark: another data set of the same source
# Target sequence in this assay (P46935 whole entry): as above
row,Variant,effect of a mutation on the interaction
1,Y200A,decreasing interaction strength

# Variants of: B3
# Settings: with nedd4_mouse Nedd4, P46935
# Remark: another data set of the same source
# Target sequence in this assay (P46935 whole entry): as above
row,Variant,effect of a mutation on the interaction
1,Y200A,disrupting interaction strength

# Variants of: B3
# Settings: with nedd4_mouse Nedd4, P46935
# Remark: another data set of the same source
row,Variant,effect of a mutation on the interaction
1,Y252A,decreasing interaction strength

# Variants of: B4
# Settings: with nedd4_mouse Nedd4, P46935
row,Variant,effect of a mutation on the interaction
1,Y139A,decreasing interaction strength

# Variants of: B4
# Settings: with nedd4_mouse Nedd4, P46935
# Remark: another data set of the same source
row,Variant,effect of a mutation on the interaction
1,Y210A,disrupting interaction strength

# Variants of: B4
# Settings: with nedd4_mouse Nedd4, P46935
# Remark: another data set of the same source
row,Variant,effect of a mutation on the interaction
1,Y210A,disrupting interaction strength

# Variants of: B5
# Settings: with nedd4_mouse Nedd4, P46935
row,Variant,effect of a mutation on the interaction
1,Y40A,disrupting interaction

# Variants of: B5
# Settings: with nedd4_mouse Nedd4, P46935
# Remark: another data set of the same source
row,Variant,effect of a mutation on the interaction
1,Y40A,disrupting interaction strength

# Variants of: B6
# Settings: with nedd4_mouse Nedd4, P46935
row,Variant,effect of a mutation on the interaction
1,Y23A,disrupting interaction strength

# Variants of: B7
# Settings: with nedd4_mouse Nedd4, P46935
row,Variant,effect of a mutation on the interaction
1,Y42A,decreasing interaction strength
